# Reference: PMC11623929
# Target: WDR5-Luc-FKBP12
substance,measurement,value
VHL-FRB (from UniProt P42345 2019-2112),"decrease of luciferase activity of the WDR5 fusion in HEK293 cells, rapamycin overnight, 10- or 100-fold excess of the VHL-FRB plasmid (bridged by rapamycin)",50.2%
